# Test results taken from patent US20050250934A1.
# Molecular target: human IgE myeloma protein (American Biosystems, Inc. cat. no. A113) (human)
# Test: ELISA negative control run with each assay (human IgE ELISA and peptide ELISAs)
# human IgE myeloma protein (American Biosystems, Inc. cat. no. A113) (human), sequence (heavy, as listed by the source): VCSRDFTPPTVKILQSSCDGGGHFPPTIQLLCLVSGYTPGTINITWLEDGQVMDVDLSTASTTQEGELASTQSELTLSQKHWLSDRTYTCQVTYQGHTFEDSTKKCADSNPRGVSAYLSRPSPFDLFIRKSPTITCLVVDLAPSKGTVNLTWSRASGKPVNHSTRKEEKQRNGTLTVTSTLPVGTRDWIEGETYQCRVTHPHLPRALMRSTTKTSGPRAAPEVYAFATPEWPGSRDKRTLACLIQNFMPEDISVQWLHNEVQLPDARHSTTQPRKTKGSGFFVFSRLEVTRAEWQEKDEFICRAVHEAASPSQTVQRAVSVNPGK
substance,measurement,value
diluted normal guinea pig control samples (antibody),A492,< 0.15 A492
